# In patent US20190275196A1, “Hemostatic Powders with Self-Assembling Peptide Hydrogels” (3-D Matrix, Ltd., priority 2016, published 2019):
# How the values were obtained:
# Type in all cases: physicochemical
# [1] = Congo Red assay of gel formation of peptide solutions with hemostatic powders; details: for gel formation when mixed with hemostatic powder compared with pure peptide solution: Congo Red assay, visual
# Experimental: A Congo Red assay was performed to determine gel formation of peptide solutions in a saline buffer solution (pH 7.4) when used with hemostatic powders.
# Pure self-assembling peptide solution (PuraMatrix®), and peptide solution/hemostatic powders (Surgiflo®, Ethicon) mixtures were plated on a glass slide. After 30 seconds, 1% Congo Red solution in saline buffer solution (pH 7.4) was added around and on top of the gel aliquots and then the excess Congo Red solution was wiped off prior to examination. Visualization of gel formation determined the success or failure of gelation. […] In (1) and (2), self-assembling peptide solution (PuraMatrix®) before and after Congo red assay, respectively is shown. In (3) and (4), PuraMatrix® mixed with absorbable gelatin powder (Surgiflo®, Ethicon) at a ratio of 2 to 1 (v/w) before and after Congo red assay, respectively is shown. In (5) and (6), PuraMatrix® mixed with absorbable gelatin powder (Surgiflo®, Ethicon) at a ratio of 5 to 1 (v/w) before and after Congo red assay, respectively is shown.
# Pure self-assembling peptide solution (IEIK13 1.3% at pH3.0) and peptide solution/hemostatic powders (Surgiflo®, Ethicon) mixture were plated on a glass slide. After 30 seconds, 1% Congo Red solution in saline buffer solution ([…]) was added around and on top of the gel aliquots and then the excess Congo Red solution was wiped off prior to examination. Visualization of gel formation determined the success or failure of gelation. […] In (1) and (2), self-assembling peptide solution (IEIK13 1.3% at pH 3.0) before and after Congo Red assay, respectively, is shown. In (3) and (4), IEIK13 1.3% at pH 3.0 mixed with absorbable gelatin powder, (Surgiflo®, Ethicon) at a ratio of 2 to 1 (v/w) before and after Congo Red assay, respectively, is shown. The interval of grids in FIG. 8 is 1 cm.
# [2] = Apparent miscibility of gelatin powder with peptide solution or saline (syringe mixing); details: various mixing ratios, mixed between two luer-lock syringes, plated on glass slide
# Experimental: Gelatin powder (Surgiflo®) was separately mixed with saline and RADA16 2.5% solution (PuraMatrix®) to determine their apparent miscibility. Gelatin powders were placed in a luer-lock syringe and saline or RADA16 2.5% solution (PuraMatrix®) was placed in another luer-lock syringe. The syringes were connected to mix the contents of the two syringes by moving the plungers back and forth, for example, six times until the consistency was even. The mixtures were plated on a glass slide. FIG. 3 presents images of gelatin powder (Surgiflo®) and saline mixtures (upside images) and gelatin powder and RADA16 2.5% (PuraMatrix®) mixtures at various mixing ratios.
# Gelatin powder (Surgiflo®) was mixed with IEIK13 1.3% (pH 3.0) solution to determine its apparent miscibility. Gelatin powders were placed in a luer-lock syringe and IEIK13 1.3% (pH 3.0) was placed in another luor-lock syringe. The syringes were connected to mix contents of the two syringes by moving the plungers back and forth, for example, six times until the consistency was even. The mixtures were plated on a glass slide. FIG. 9 presents images of gelatin powder (Surgiflo®) and IEIK13 mixtures at various mixing ratios.
# [3] = Rheology (storage/loss modulus, frequency sweep) before and after DMEM treatment; details: DMEM for 20 min; 25° C.; 1-10 rad/sec
# Experimental: The rheological properties of gelatin powders with saline, self-assembling peptide, and gelatin powder with self-assembling peptide were evaluated using a rheometer (DHR-1, TA Instruments) with 20 mm plates. The samples were placed on the rheometer plate and the moduli were measured at 25° C. with the plates placed at a measuring geometry gap of 1000 μm. Measurements were performed after 2 minutes of relaxation time at 25° C. Frequency sweep tests were performed at 1 rad/sec˜10 red/sec of oscillation stress with strain at 0.01.
# Pure RADA16 2.5% (PuraMatrix®), gelatin powder (Surgiflo®) mixed with saline at 2:1 w/v ratio, and gelatin powder mixed with RADA16 2.5% at various mixing ratios were all tested. These samples were treated with DMEM for 20 min after their frequency tests were performed without DMEM treatment. FIG. 4 presents the rheology of gelatin powders mixed with saline at a ratio of 2:1 w/v before and after DMEM treatment. FIG. 5 presents the rheology of RADA16 2.5% solution before and after DMEM treatment. FIG. 6 presents the rheology of gelatin powders mixed with RADA16 2.5% at a ratio of 1:5 w/v before and after DMEM treatment.
# [4] = peptide solution mixed with gelatin powder (Surgiflo®) at a ratio of 2 to 1 (v/w), 1% Congo Red in saline buffer solution (pH 7.4)
Substance,gel formation when mixed with hemostatic powder compared with pure peptide solution [1],"gel formation (gelation) ([1]; mixed with a hemostatic powder at a ratio of 5 to 1, expected, not tested)","gel formation (gelation) [1, 4]",apparent miscibility with gelatin powder (Surgiflo®) [2],apparent miscibility with gelatin powder (Surgiflo®) ([2]; listed as IEIK13),"gel formation (gelation) ([1]; peptide solution mixed with gelatin powder (Surgiflo®) at a ratio of 5 to 1 (v/w), 1% Congo Red in saline buffer solution (pH 7.4))",apparent miscibility with gelatin powder (Surgiflo®) ([2]; listed as RADA16),change of moduli (storage/loss) after DMEM treatment [3]
"IEIK13 1.3% (pH3.0): self-assembling peptide having the repeating sequence Ile-Glu-Ile-Lys (IEIK), 1.3% solution at pH 3.0",gelled even when mixed with hemostatic powder to a similar extent as observed in pure peptide solution,capable of gelation,capable of gelation,capable of homogenous mixture,homogeneously mixed across various mixing ratios,,,
RADARADARADARADA [RADA16 2.5%],gelled even when mixed with hemostatic powder to a similar extent as observed in pure peptide solution,,capable of gelation,capable of homogenous mixture,,capable of gelation,homogeneously mixed across various mixing ratios,increased
